This is an account of results in US20120282279A1 (COVX TECHNOLOGIES IRELAND, published 2012).

This assay concerns the target FGF21 cell surface receptor composed of FGFR1c and β-Klotho (on the cells of the bioactivity assays) (UniProt P16092 22-822; Q99N32 1-1043, limits assumed). Kind of assay: cell-based or functional assay.

Sequence of FGF21 cell surface receptor composed of FGFR1c and β-Klotho (on the cells of the bioactivity assays) (P16092 22-822 limits assumed, chain 1 of 2): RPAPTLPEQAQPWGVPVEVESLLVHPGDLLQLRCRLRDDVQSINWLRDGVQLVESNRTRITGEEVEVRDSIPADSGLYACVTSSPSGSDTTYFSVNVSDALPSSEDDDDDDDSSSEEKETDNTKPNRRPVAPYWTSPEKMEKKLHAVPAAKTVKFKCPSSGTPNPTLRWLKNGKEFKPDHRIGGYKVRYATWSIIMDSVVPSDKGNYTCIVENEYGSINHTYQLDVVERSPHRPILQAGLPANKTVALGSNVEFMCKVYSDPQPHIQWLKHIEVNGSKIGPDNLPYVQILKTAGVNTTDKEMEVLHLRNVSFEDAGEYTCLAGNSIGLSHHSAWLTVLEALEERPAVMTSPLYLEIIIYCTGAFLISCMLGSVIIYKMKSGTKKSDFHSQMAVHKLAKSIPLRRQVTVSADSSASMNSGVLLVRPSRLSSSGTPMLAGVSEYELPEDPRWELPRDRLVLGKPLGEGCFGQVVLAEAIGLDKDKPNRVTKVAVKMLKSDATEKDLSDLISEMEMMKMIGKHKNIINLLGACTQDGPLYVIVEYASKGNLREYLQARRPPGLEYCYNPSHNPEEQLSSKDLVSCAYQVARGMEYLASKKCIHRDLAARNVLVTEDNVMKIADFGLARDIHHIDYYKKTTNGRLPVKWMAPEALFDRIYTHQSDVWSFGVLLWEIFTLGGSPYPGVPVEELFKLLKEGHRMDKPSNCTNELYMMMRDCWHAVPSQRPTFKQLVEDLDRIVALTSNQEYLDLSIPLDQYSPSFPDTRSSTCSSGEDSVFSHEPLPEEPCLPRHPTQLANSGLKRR
Sequence of FGF21 cell surface receptor composed of FGFR1c and β-Klotho (on the cells of the bioactivity assays) (Q99N32 whole entry, chain 2 of 2): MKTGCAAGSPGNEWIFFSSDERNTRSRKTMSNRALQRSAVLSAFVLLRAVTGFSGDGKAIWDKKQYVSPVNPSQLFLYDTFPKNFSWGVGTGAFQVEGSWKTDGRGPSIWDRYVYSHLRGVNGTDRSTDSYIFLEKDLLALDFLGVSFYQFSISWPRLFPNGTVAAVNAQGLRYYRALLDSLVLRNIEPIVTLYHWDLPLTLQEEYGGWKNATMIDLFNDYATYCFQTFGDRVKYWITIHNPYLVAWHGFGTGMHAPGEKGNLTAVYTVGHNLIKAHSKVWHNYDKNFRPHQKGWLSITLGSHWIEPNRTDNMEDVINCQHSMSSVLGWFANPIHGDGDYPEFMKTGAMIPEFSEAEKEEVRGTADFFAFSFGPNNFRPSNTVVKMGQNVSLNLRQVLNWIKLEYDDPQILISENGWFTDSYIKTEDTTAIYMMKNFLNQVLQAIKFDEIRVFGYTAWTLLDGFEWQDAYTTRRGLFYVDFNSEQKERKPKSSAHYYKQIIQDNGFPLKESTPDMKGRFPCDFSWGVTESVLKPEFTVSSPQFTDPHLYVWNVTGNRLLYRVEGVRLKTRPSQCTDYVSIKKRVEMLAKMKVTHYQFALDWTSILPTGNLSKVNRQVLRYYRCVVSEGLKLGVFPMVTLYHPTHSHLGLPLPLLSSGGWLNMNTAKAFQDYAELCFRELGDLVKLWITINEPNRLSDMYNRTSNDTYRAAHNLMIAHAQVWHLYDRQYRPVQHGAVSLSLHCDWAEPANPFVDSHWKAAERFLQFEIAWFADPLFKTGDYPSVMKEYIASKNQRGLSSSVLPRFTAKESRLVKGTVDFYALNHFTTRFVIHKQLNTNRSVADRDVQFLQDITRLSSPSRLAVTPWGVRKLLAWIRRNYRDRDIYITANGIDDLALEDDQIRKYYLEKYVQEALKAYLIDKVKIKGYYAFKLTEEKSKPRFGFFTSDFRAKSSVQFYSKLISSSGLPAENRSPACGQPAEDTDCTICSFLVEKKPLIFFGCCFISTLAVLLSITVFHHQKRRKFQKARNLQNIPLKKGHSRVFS

B1: FGF21ΔH (ligand)
chain: PIPDSSPLLQFGGQVRQRYLYTDDAQQTEAHLEIREDGTVGGAADQSPESLLQLKALKPGVIQILGVKTSRFLCQRPDGALYGSLHFDPEACSFRELLLEDGYNVYQSEAHGLPLHLPGNKSPHRDPAPRGPARFLPLPGLPPAPPEPPGILAPQPPDVGSSDPLSMVGPSQGRSPSYAS
Regarding B1, the “Glut1 Taqman unconjugated Protein EC50” value was found to be 2.3 nM.
